Key:
[1] = molecular target: T1, cynomolgus monkey CD96, native, on primary cynomolgus monkey T cells (cynomolgus monkey, UniProt A0A2K5TWV6 22-569); assay: flow cytometry on activated cynomolgus monkey T cells, donor 1
T1 construct: whole, on cells
T1 sequence: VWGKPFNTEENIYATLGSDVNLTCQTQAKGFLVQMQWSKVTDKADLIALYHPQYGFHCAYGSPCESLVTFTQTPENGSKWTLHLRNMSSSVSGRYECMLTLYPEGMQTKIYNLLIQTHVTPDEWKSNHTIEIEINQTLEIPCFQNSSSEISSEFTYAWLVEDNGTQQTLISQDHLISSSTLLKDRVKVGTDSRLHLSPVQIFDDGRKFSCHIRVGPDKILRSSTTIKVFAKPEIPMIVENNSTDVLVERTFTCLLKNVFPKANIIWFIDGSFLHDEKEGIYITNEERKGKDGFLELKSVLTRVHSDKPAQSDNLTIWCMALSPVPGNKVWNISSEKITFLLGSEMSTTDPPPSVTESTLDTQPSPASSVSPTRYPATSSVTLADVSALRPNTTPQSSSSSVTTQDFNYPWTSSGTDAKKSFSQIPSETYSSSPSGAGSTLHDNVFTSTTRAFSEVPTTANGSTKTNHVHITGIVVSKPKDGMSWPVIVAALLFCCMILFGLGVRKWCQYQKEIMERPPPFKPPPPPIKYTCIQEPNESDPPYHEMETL

recombinant human CD155 = molecular target: T2, recombinant human CD155 (human, UniProt P15151 21-343); assay: surface plasmon resonance (SPR)
T2 sequence: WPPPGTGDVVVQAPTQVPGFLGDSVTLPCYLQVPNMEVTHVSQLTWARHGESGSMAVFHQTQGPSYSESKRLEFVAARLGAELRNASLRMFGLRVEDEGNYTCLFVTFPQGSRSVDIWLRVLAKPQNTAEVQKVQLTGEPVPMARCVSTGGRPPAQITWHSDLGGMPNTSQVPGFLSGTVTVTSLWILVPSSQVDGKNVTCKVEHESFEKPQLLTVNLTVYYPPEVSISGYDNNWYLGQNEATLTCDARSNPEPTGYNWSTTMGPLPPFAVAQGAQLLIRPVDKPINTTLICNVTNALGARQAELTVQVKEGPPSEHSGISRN

recombinant human CD226 = molecular target: T3, recombinant human CD226 (human, UniProt Q15762 19-247, limits assumed); assay: surface plasmon resonance (SPR)
T3 sequence (looked up): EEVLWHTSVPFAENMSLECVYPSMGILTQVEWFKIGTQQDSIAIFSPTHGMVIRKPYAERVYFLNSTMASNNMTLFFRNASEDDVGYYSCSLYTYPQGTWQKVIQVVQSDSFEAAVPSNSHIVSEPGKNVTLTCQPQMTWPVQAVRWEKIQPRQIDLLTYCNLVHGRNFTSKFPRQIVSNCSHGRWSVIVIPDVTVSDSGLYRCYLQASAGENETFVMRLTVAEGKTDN

recombinant human TIGIT = molecular target: T4, recombinant human TIGIT (human, UniProt Q495A1 22-141); assay: surface plasmon resonance (SPR)
T4 sequence (looked up): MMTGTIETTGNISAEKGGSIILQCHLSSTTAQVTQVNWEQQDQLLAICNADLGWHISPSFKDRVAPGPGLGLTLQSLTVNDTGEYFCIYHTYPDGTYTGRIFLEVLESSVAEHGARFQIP

[2] = molecular target: T5, recombinant human nectin-1 (human, UniProt Q15223 31-334, limits assumed); assay: surface plasmon resonance (SPR)
T5 sequence (looked up): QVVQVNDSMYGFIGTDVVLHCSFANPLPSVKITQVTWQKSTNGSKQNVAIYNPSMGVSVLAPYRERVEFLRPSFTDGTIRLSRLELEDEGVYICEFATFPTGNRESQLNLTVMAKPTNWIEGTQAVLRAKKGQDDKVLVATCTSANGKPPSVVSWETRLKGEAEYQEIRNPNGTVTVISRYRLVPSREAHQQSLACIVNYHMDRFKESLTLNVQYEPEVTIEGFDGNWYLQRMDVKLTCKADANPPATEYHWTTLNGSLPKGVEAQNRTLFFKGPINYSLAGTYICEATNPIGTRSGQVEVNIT

recombinant human CD96v2 = molecular target: T6, recombinant human CD96v2 (human, UniProt P40200-2 22-503, limits assumed, biotinylated (site not stated)); assay: MSD-SET solution equilibrium titration, antibody titrated against constant biotinylated CD96, free antigen detected
T6 construct: Soluble recombinant protein used in MSD-SET; also called Biotinylated human CD96 protein
T6 sequence (looked up): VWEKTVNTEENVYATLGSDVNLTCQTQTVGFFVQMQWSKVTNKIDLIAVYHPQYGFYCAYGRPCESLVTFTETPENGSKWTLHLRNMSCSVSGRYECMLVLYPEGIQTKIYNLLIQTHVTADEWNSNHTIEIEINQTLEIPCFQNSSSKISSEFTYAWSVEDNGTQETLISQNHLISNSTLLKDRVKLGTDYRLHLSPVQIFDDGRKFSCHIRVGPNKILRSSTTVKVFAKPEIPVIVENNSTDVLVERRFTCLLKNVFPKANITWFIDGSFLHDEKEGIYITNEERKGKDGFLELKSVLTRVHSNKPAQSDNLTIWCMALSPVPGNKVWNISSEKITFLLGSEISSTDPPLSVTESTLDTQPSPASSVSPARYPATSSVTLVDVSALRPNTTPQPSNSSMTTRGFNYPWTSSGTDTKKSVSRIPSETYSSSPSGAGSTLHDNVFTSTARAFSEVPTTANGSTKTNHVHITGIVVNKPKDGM

[3] = molecular target: T7, human CD96v2 expressed on cells (CHO cells; transiently transfected HEK cells) (human, UniProt P40200-2 22-569); assay: flow cytometry on transiently transfected HEK cells (Human CD96v2)
T7 construct: whole, on cells; the cell is named under assay; also called CHO-huCD96; hCD96v2
T7 sequence (looked up): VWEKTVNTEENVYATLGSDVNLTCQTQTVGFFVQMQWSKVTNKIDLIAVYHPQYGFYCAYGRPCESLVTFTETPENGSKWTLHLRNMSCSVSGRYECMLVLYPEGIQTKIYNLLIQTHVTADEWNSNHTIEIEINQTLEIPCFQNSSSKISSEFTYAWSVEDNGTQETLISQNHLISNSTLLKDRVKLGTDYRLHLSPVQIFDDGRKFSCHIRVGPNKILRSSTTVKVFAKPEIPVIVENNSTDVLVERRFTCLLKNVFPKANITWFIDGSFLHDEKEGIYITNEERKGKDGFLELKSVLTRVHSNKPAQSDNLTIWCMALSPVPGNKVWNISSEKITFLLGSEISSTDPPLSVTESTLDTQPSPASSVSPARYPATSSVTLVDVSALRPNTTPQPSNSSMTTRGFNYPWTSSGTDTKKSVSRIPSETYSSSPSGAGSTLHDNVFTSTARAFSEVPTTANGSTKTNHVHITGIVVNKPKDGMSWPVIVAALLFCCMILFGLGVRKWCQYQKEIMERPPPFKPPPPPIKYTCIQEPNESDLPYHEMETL

EC50 (read off the curve) [1]: ~50 pM | binding result (recombinant human CD155): no binding | binding result (recombinant human CD226): no binding | binding result (recombinant human TIGIT): no binding | binding result [2]: no binding | IC50 (read off the curve) (recombinant human CD96v2): ~60 pM | EC50 (read off the curve) [3]: ~6000 pM
B1: 42Y073-86F08-66 (antibody)
heavy: not shown
light: DIQLTQSPSSLSASVGDRVTITCRASQSISSYLNWYQQKPGKAPKLLIYAASSLQSGVPSRFSGSGSGTDFTLTISSLQPEDFATYYCQQVLHTITFGGGTKVEIKRTVAAPSVFIFPPSDEQLKSGTASVVCLLNNFYPREAKVQWKVDNALQSGNSQESVTEQDSKDSTYSLSSTLTLSKADYEKHKVYACEVTHQGLSSPVTKSFNRGEC
notes: also called GSK 6097608; GSK6097608

Source: US12528864 (GlaxoSmithKline, dated 2026)
